In test [1] the target is T1, mouse SIRPA overexpressed on CHO cells (mouse, UniProt P97797 32-513).
T1 construct: also called CHO-muSIRPA
T1 sequence: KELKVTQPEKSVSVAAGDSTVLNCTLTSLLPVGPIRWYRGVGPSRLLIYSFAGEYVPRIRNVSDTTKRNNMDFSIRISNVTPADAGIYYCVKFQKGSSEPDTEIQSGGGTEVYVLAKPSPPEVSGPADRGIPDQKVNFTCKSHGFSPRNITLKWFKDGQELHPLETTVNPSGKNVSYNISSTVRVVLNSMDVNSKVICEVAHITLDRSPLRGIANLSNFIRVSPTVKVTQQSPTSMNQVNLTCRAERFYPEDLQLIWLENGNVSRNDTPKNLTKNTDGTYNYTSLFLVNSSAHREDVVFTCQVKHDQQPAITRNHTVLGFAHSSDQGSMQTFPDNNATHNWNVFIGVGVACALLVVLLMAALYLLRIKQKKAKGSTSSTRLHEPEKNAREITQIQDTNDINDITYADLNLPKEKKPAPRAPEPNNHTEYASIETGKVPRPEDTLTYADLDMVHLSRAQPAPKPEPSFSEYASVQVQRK
As to the kind of experiment: flow, CHO-muSIRPA.

The target of another test is Human SIRPb D1 Fc (human, UniProt O00241 30-148, limits assumed). Nature of the test: ForteBio IgG avid.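 Note: antibody IgG captured on AHQ biosensors, then 100 nM Fc-fused SIRP antigen applied for 3 min, followed by 3 min buffer dissociation, kinetics fitted to a 1:1 model.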 For orientation: BLI is a label-free optical method that tracks binding on a fibre tip over time.
Human SIRPb D1 Fc, sequence (O00241 30-148 limits assumed): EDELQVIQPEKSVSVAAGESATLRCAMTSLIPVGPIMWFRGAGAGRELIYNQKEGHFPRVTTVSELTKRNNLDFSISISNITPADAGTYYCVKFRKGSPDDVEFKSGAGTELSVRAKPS
For the next test, the target named is T2, Mouse SIRPA D1 Fc (mouse, UniProt P97797 32-150, limits assumed).
T2 sequence: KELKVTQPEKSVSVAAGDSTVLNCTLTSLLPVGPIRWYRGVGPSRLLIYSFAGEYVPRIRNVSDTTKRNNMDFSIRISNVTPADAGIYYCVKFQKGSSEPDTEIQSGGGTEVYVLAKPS
Nature of the test: ForteBio IgG avid.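 Note: antibody IgG captured on AHQ biosensors, then 100 nM Fc-fused SIRP antigen applied for 3 min, followed by 3 min buffer dissociation, kinetics fitted to a 1:1 model.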

For a further test, the target named is T3, Human SIRPA D1 Fc (human, UniProt P78324 32-137).
T3 construct: not shown: human IgG1 Fc
Nature of the test: ForteBio IgG avid.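 Note: antibody IgG captured on AHQ biosensors, then 100 nM Fc-fused SIRP antigen applied for 3 min, followed by 3 min buffer dissociation, kinetics fitted to a 1:1 model.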

Test [2] addresses T1, mouse SIRPA overexpressed on CHO cells. As to the kind of experiment: flow, CHO-muSIRPA. This is another data set of the same source.
In test [3] the target is T4, human SIRPA overexpressed on CHO cells (human, UniProt P78324 31-504).
T4 construct: also called CHO-huSIRPA
As to the kind of experiment: flow, CHO-huSIRPA.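 Note: Anti-SIRPA antibodies applied at 1 µg/mL for 1 h on ice, binding read by flow cytometry using a PE-labelled secondary antibody.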

B1: SA-26 (antibody, V domains shown)
VH: QVQLQQWGAGLLKPSETLSLTCAVYGGSFSGYYWSWIRQPPGKGLEWIGEIDHSGSTNYNPSLKSRVTISVDTSKNQFSLKLSSVTAADTAVYYCARDRLDGSLGIYGMDVWGQGTTVTVSS
VL: DIQMTQSPSSLSASVGDRVTITCRASQSINSYLNWYQQKPGKAPKLLIYAASSLQSGVPSRFSGSGSGTDFTLTISSLQPEDFATYYCQQSPSDPWTFGGGTKVEIK
notes: IgG
Consider B1, for which the results for the binding result (in test [1]; with Human SIRPb D1 Fc; with Mouse SIRPA D1 Fc) were “no binding (tested: 1 ug/ml)”, “no binding (tested: 100 nM)” and “no binding (tested: 100 nM)”, respectively. Also, binding in the test with Human SIRPA D1 Fc was characterised by a dissociation constant (Kd) of 13.8 nM. Moreover, the “relative MFI” value was 0.574 fold over background in test [2] and 1.1 fold over background in test [3].

B2: SA-22 (antibody, V domains shown)
VH: EVQLVESGGGLVKPGGSLRLSCAASGFTFSSYSMNWVRQAPGKGLEWVSSISSSSSYIYYADSVKGRFTISRDNAKNSLYLQMNSLRAEDTAVYYCARDPTDSSSYYDVWGQGTLVTVSS
VL: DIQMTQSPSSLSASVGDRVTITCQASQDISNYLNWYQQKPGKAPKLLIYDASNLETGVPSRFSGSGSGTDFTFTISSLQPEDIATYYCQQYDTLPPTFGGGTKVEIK
notes: IgG
In the case of B2, the binding result in test [1] is “no binding (tested: 1 ug/ml)”; with Human SIRPb D1 Fc, “no binding (tested: 100 nM)”; with Mouse SIRPA D1 Fc it was “no binding (tested: 100 nM)”. Also, the affinity with Human SIRPA D1 Fc, expressed as Kd, was 22 nM. Moreover, the “relative MFI” value in test [2] turned out to be 0.619 fold over background; in test [3], 1.39 fold over background.

B3: SA-16 (antibody, V domains shown)
VH: QVQLQQWGAGLLKPSETLSLTCAVYGGSFSGYYWSWIRQPPGKGLEWIGEIDHSGSTNYNPSLKSRVTISVDTSKNQFSLKLSSVTAADTAVYYCARDLGPPGPHLDVWGQGTMVTVSS
VL: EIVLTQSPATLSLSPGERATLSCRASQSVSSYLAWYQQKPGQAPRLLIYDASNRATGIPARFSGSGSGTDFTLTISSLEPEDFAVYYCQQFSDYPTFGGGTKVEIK
notes: IgG
Turning to B3, the binding result is given as “no binding (tested: 1 ug/ml)” in test [1], “no binding (tested: 100 nM)” with Human SIRPb D1 Fc and “no binding (tested: 100 nM)” in the test with Mouse SIRPA D1 Fc. Further, the affinity with Human SIRPA D1 Fc, expressed as Kd, was 4.02 nM. Further, the “relative MFI” value stood at 0.539 fold over background in test [2] and 0.592 fold over background in test [3].

B4: SA-28 (antibody, V domains shown)
VH: QVQLQESGPGLVKPSQTLSLTCTVSGGSISSGGYYWSWIRQHPGKGLEWIGNIYYSGSTYYNPSLKSRVTISVDTSKNQFSLKLSSVTAADTAVYYCARDSDTSWGGFDYWGQGTLVTVSS
VL: EIVLTQSPGTLSLSPGERATLSCRASQSVRSSYLAWYQQKPGQAPRLLIYGASSRATGIPDRFSGSGSGTDFTLTISRLEPEDFAVYYCQQAGVSPYTFGGGTKVEIK
notes: IgG
For the molecule B4, the binding result was “no binding (tested: 1 ug/ml)” in test [1], “no binding (tested: 100 nM)” with Human SIRPb D1 Fc and “no binding (tested: 100 nM)” with Mouse SIRPA D1 Fc. In addition, the Kd (commonly the equilibrium constant for the complex coming apart) with Human SIRPA D1 Fc stood at 6.67 nM. Besides, the “relative MFI” value was 0.467 fold over background in test [2] and 0.775 fold over background in test [3].

B5: SA-25 (antibody, V domains shown)
VH: QVQLVQSGAEVKKPGSSVKVSCKASGGTFSSYAISWVRQAPGQGLEWMGSIIPIFGTANYAQKFQGRVTITADESTSTAYMELSSLRSEDTAVYYCARDRGYPRYSYLDLWGRGTLVTVSS
VL: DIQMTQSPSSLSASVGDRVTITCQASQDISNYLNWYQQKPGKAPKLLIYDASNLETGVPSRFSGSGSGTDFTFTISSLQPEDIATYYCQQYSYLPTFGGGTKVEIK
notes: IgG
For the molecule B5, the binding result in test [1] is given as “no binding (tested: 1 ug/ml)”; with Human SIRPb D1 Fc, “no binding (tested: 100 nM)”; with Mouse SIRPA D1 Fc, “no binding (tested: 100 nM)”. Moreover, binding with Human SIRPA D1 Fc was put at a Kd of 24.2 nM. Besides, the “relative MFI” value in test [2] is 0.586 fold over background; in test [3], 8.27 fold over background.

B6: SA-27 (antibody, V domains shown)
VH: QLQLQESGPGLVKPSETLSLTCTVSGGSISSSSYYWGWIRQPPGKGLEWIGSIYYSGSTYYNPSLKSRVTISVDTSKNQFSLKLSSVTAADTAVYYCARDSDKVALDLWGRGTLVTVSS
VL: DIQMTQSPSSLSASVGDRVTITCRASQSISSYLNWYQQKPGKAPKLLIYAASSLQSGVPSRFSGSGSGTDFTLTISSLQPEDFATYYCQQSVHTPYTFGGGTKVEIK
notes: IgG
On to B6, for which the binding result in test [1] is given as “no binding (tested: 1 ug/ml)”; with Human SIRPb D1 Fc it was “no binding (tested: 100 nM)”; in the test with Mouse SIRPA D1 Fc it was “no binding (tested: 100 nM)”. The dissociation constant (Kd) in the test with Human SIRPA D1 Fc came to 4.43 nM. Moreover, the “relative MFI” value in test [2] stood at 0.619 fold over background; in test [3] it was 0.722 fold over background.

Source of the values: patent US20240270866A1 (Alector, published 2024).
